Assay results from the supplement of paper PMC7877785.
± gives the uncertainty stated by the source.

Experiment: self-splicing fitness, log relative to wild type (ln ratio); higher = more splicing; Tetrahymena group I intron in knt gene, E. coli kanamycin selection, DiMSum; sequences stand for … in CUCUCU…GGAGGGAAAAGUUAUCAGGCAUGCACCUGGUAGCUAGUCUUUAAACCAAUAGAUUGCAUCGGUUUAAAAGGCAAGACCGUCAAAUUGCGGGAAAGGGGUCAACAGCCGUUCAGUACCAAGUCUCAGGGGAAACUUUGAGAUGGCCUUGCAAAGGGUAUGGUAAUAAGCUGACGGACAUGGUCCUAACCACGCAGCCAAGUCCUAAGUCAACAGAUCUUCUGUUGAUAUGGAUGCAGUUCACAGACUAAAUGUCGGUCGGGGAAGAUGUAUUCUUCUCAUAAGAUAUAGUCGGACCUCUCCUUAAUGGGAGCUAGCGGAUGAAGUGAUGCAACACUGGAGCCGCUGGGAACUAAUUUGUAUGCGAAAGUAUAUUGAUUAGUUUUGGAGUACUCGUGGUCG
Procedure, shortened: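 DiMSum derived fitness as the error-weighted combination of fold changes across replicates, kanamycin versus no kanamycin, normalised to wild type. E. coli BL21(DE3) held the library, which randomised all eight P1ex-region intron nucleotides within the knt kanamycin-resistance gene on pET-22b(+). Six replicate transformations grew overnight at 37°C or 30°C on LB agar with or without 25 μg/mL kanamycin, also containing 100 μg/mL carbenicillin, 50 μM IPTG and 0.2% rhamnose, and pooled colonies were amplicon-sequenced on an Illumina HiSeq 2500.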

Row | Sequence | self-splicing fitness (ln) (30 °C) | self-splicing fitness (ln) (37 °C)
1 | GGCAAGCAAUAUUACGAGCU | -2.69 ± 0.18 | -1.67 ± 0.23
2 | GGCAAGCAAUAUUACGAGGG | -2.89 ± 0.13 | -2.34 ± 0.14
3 | GGCAAGCAAUAUUACGAUAG | -2.73 ± 0.19 | -2.18 ± 0.14
4 | GGCAAGCAAUAUUACGAUCG | -0.12 ± 0.054 | -0.459 ± 0.066
5 | GGCAAGCAAUAUUACGAUGC | -2.36 ± 0.11 | -1.02 ± 0.12
6 | GGCAAGCAAUAUUACGCAAC | -2.24 ± 0.12 | -0.823 ± 0.1
7 | GGCAAGCAAUAUUACGCAGA | -1.23 ± 0.15 | -0.852 ± 0.16
8 | GGCAAGCAAUAUUACGCCCA | -1.95 ± 0.15 | -0.268 ± 0.12
9 | GGCAAGCAAUAUUACGCUAA | -0.671 ± 0.089 | 0.1 ± 0.12
10 | GGCAAGCAAUAUUACGCUCC | -2.93 ± 0.44 | -1.07 ± 0.36
11 | GGCAAGCAAUAUUACGCUUA | -0.449 ± 0.076 | 0.129 ± 0.1
12 | GGCAAGCAAUAUUACGGACC | -1.77 ± 0.18 | -0.606 ± 0.2
13 | GGCAAGCAAUAUUACGGAGU | -2.62 ± 0.12 | -0.542 ± 0.1
14 | GGCAAGCAAUAUUACGGCCG | -1.09 ± 0.11 | 0.00962 ± 0.13
15 | GGCAAGCAAUAUUACGGGGA | -3.51 ± 0.26 | -1.31 ± 0.3
16 | GGCAAGCAAUAUUACGGGUG | -0.914 ± 0.055 | -0.195 ± 0.066
17 | GGCAAGCAAUAUUACGUACA | -0.414 ± 0.071 | 0.296 ± 0.094
18 | GGCAAGCAAUAUUACGUCUA | -0.593 ± 0.084 | 0.16 ± 0.085
19 | GGCAAGCAAUAUUACGUGAU | -0.97 ± 0.078 | -0.169 ± 0.092
20 | GGCAAGCAAUAUUACGUGCC | – | -1.47 ± 0.43
21 | GGCAAGCAAUAUUACGUGUC | -2.42 ± 0.11 | -3.08 ± 0.17
22 | GGCCAGCAAUAUUACGAAUA | -3.4 ± 0.36 | -2.71 ± 0.23
23 | GGCCAGCAAUAUUACGACCA | -1.46 ± 0.1 | -0.797 ± 0.11
24 | GGCCAGCAAUAUUACGACUG | -0.744 ± 0.12 | -0.348 ± 0.15
25 | GGCCAGCAAUAUUACGAGUC | -2.16 ± 0.14 | -1.24 ± 0.14
26 | GGCCAGCAAUAUUACGCACG | -1.18 ± 0.07 | -0.36 ± 0.082
27 | GGCCAGCAAUAUUACGCAUU | -0.554 ± 0.05 | 0.109 ± 0.067

Row | Sequence | self-splicing fitness (ln) (30 °C) | self-splicing fitness (ln) (37 °C)
28 | GGCCAGCAAUAUUACGCCAC | -4.58 ± 0.46 | -1.8 ± 0.49
29 | GGCCAGCAAUAUUACGCCUU | -2.04 ± 0.12 | -0.815 ± 0.097
30 | GGCCAGCAAUAUUACGCGGU | -3.63 ± 0.46 | -2.53 ± 0.34
31 | GGCCAGCAAUAUUACGCGUU | -0.164 ± 0.09 | 0.0494 ± 0.12
32 | GGCCAGCAAUAUUACGCUAA | -0.606 ± 0.09 | -0.303 ± 0.1
33 | GGCCAGCAAUAUUACGCUGU | -1.74 ± 0.08 | -1.37 ± 0.11
34 | GGCCAGCAAUAUUACGGAGU | -0.585 ± 0.063 | -0.166 ± 0.084
35 | GGCCAGCAAUAUUACGGAUG | -0.5 ± 0.08 | -0.503 ± 0.077
36 | GGCCAGCAAUAUUACGGCAG | -0.833 ± 0.058 | -0.191 ± 0.1
37 | GGCCAGCAAUAUUACGGCGU | -1.59 ± 0.098 | -0.69 ± 0.12
38 | GGCCAGCAAUAUUACGGUAU | -0.512 ± 0.06 | 0.47 ± 0.084
39 | GGCCAGCAAUAUUACGGUUG | -0.224 ± 0.062 | -0.166 ± 0.075
40 | GGCCAGCAAUAUUACGUAAU | -0.304 ± 0.098 | -0.62 ± 0.098
41 | GGCCAGCAAUAUUACGUGCA | -0.734 ± 0.078 | -0.196 ± 0.074
42 | GGCCAGCAAUAUUACGUGGA | -4.07 ± 0.25 | -2.49 ± 0.17
43 | GGCCAGCAAUAUUACGUGGC | -0.533 ± 0.25 | -1.69 ± 0.35
44 | GGCCAGCAAUAUUACGUUAU | -2.4 ± 0.13 | -0.702 ± 0.11
45 | GGCGAGCAAUAUUACGAACG | -1.57 ± 0.078 | 0.152 ± 0.091
46 | GGCGAGCAAUAUUACGAAGU | -2.81 ± 0.44 | -1.21 ± 0.19
47 | GGCGAGCAAUAUUACGAUGG | -2.32 ± 0.24 | –
48 | GGCGAGCAAUAUUACGAUUA | -2.12 ± 0.22 | -1.44 ± 0.17
49 | GGCGAGCAAUAUUACGCUAA | -2.83 ± 0.32 | -1.02 ± 0.22
50 | GGCGAGCAAUAUUACGCUGC | -2.58 ± 0.39 | -0.462 ± 0.37
51 | GGCGAGCAAUAUUACGCUUC | -3.8 ± 0.34 | -2.53 ± 0.49
52 | GGCGAGCAAUAUUACGGAGU | -3.06 ± 0.4 | -1.68 ± 0.4
53 | GGCGAGCAAUAUUACGGAUG | -3.22 ± 0.19 | -1.7 ± 0.15
54 | GGCGAGCAAUAUUACGGCCU | -2.45 ± 0.23 | –

Row | Sequence | self-splicing fitness (ln) (30 °C) | self-splicing fitness (ln) (37 °C)
55 | GGCGAGCAAUAUUACGGUCC | – | -2.99 ± 0.43
56 | GGCGAGCAAUAUUACGGUCG | -1.13 ± 0.13 | -0.98 ± 0.16
57 | GGCGAGCAAUAUUACGUAAG | -3.88 ± 0.38 | -1.39 ± 0.27
58 | GGCGAGCAAUAUUACGUACC | -1.44 ± 0.25 | –
59 | GGCGAGCAAUAUUACGUAUG | -1.78 ± 0.14 | -1.01 ± 0.14
60 | GGCGAGCAAUAUUACGUCAC | -3.01 ± 0.23 | –
61 | GGCGAGCAAUAUUACGUGGU | -4.31 ± 0.27 | -1.77 ± 0.16
62 | GGCUAGCAAUAUUACGAAAG | -2.44 ± 0.26 | -2.4 ± 0.44
63 | GGCUAGCAAUAUUACGACAC | -0.572 ± 0.11 | 0.6 ± 0.16
64 | GGCUAGCAAUAUUACGACGC | -0.655 ± 0.41 | 0.803 ± 0.43
65 | GGCUAGCAAUAUUACGCACU | -0.665 ± 0.1 | -0.592 ± 0.1
66 | GGCUAGCAAUAUUACGCCAG | -1.55 ± 0.23 | –
67 | GGCUAGCAAUAUUACGCCCG | -4.06 ± 0.47 | -3.68 ± 0.26
68 | GGCUAGCAAUAUUACGCUGU | -3.44 ± 0.29 | -1.19 ± 0.21
69 | GGCUAGCAAUAUUACGGCAG | -1.12 ± 0.23 | -0.728 ± 0.38
70 | GGCUAGCAAUAUUACGGCGU | -0.171 ± 0.086 | -0.201 ± 0.094
71 | GGCUAGCAAUAUUACGGCUC | -3.26 ± 0.3 | –
72 | GGCUAGCAAUAUUACGGGUG | -0.804 ± 0.094 | -0.739 ± 0.1
73 | GGCUAGCAAUAUUACGGUAG | -2.31 ± 0.27 | -0.259 ± 0.23
74 | GGCUAGCAAUAUUACGGUCG | 0.0358 ± 0.11 | -0.669 ± 0.12
75 | GGCUAGCAAUAUUACGUACA | -1.07 ± 0.12 | -0.185 ± 0.11
76 | GGCUAGCAAUAUUACGUCAU | -1.5 ± 0.082 | -0.278 ± 0.086
77 | GGCUAGCAAUAUUACGUCCC | – | -0.484 ± 0.43
78 | GGCUAGCAAUAUUACGUCGA | -1.19 ± 0.071 | -0.818 ± 0.093
79 | GGCUAGCAAUAUUACGUGAC | -1.84 ± 0.14 | -1.02 ± 0.16
